This is an account of results in patent publication US20240132578A1.

Assay [1] addresses HIV-1 Env of isolate APV-17 (Clade B) (HIV-1). The experiment in a line: cell-based or functional assay.
The target in assay [2] is HIV-1 92BR020 envelope protein (Env) on pseudotyped virus (HIV-1 strain 92BR020). The experiment in a line: cell-based or functional assay.
Assay [3] has as its target aMLV envelope on pseudotyped virus (negative control) (aMLV). The experiment in a line: cell-based or functional assay.
The target of assay [4] is HIV-1 SF162 envelope protein (Env) on pseudotyped virus (HIV-1 isolate SF162) (UniProt P19550). Description: cell-based or functional assay.
Assay [5] addresses HIV-1 Env of isolate 92UG114 (subtype D) (HIV-1). Description: cell-based or functional assay.
The target in assay [6] is HIV-1 Env of isolate 92UG046 (subtype D) (HIV-1). The experiment in a line: cell-based or functional assay.
Assay [7] concerns the target HIV-1 envelope glycoprotein (Env) of isolate 92WR024 (HIV-1). Description: cell-based or functional assay.
The target in assay [8] is HIV-1 Env of isolate MGRM-Chronic-B-011 (subtype B), on pseudovirus (HIV-1). The experiment in a line: cell-based or functional assay.
Assay [9] deals with HIV-1 envelope glycoprotein (Env) of isolate 92WR026 (HIV-1). Description: cell-based or functional assay.
Assay [10] concerns the target HIV-1 Env of isolate 94KE105 (pseudovirus) (HIV-1). The experiment in a line: cell-based or functional assay.
Assay [11] has as its target HIV-1 envelope glycoprotein (Env) of isolate MG RM-A-007 (HIV-1). Description: cell-based or functional assay.
In assay [12] the target is HIV-1 Env of isolate MGRM-C-025 (clade C pseudovirus) (HIV-1). The experiment in a line: cell-based or functional assay.
For assay [13], the target named is HIV-1 Env of isolate MGRM-F1-006 (subtype F) (HIV-1). Description: cell-based or functional assay.
Assay [14] deals with HIV-1 Env of isolate APV_6 (subtype B), on pseudovirus (HIV-1). The experiment in a line: cell-based or functional assay.
Assay [15] deals with HIV-1 Env of isolate MG RM-D-020 (subtype D) (HIV-1). Description: cell-based or functional assay.
In assay [16] the target is HIV-1 envelope glycoprotein (Env) of isolate 93WR029 (HIV-1). The experiment in a line: cell-based or functional assay.
Assay [17] concerns the target HIV-1 Env of isolate MG RM-D-026 (subtype D) (HIV-1). Description: cell-based or functional assay.
The target of assay [18] is HIV-1 Env of isolate CAAN.A2 (subtype B), on pseudovirus (HIV-1). The experiment in a line: cell-based or functional assay.
The target in assay [19] is HIV-1 envelope glycoprotein (Env) of isolate 92RW008 (HIV-1). Description: cell-based or functional assay.
The target of assay [20] is HIV-1 Env of isolate MGRM-A-013 (pseudovirus) (HIV-1). The experiment in a line: cell-based or functional assay.
The target in assay [21] is HIV-1 envelope glycoprotein (Env) of isolate 92WR020 (HIV-1). Description: cell-based or functional assay.
Assay [22] deals with HIV-1 Env of isolate MG RM-D-019 (subtype D) (HIV-1). The experiment in a line: cell-based or functional assay.
In assay [23] the target is HIV-1 Env of isolate MGRM-C-028 (clade C pseudovirus) (HIV-1). The experiment in a line: cell-based or functional assay.
The target in assay [24] is HIV-1 Env of isolate MG RM-D-005 (subtype D) (HIV-1). Description: cell-based or functional assay.
Assay [25] deals with HIV-1 APV13 envelope glycoprotein (Env), clade B pseudovirus (HIV-1). Description: cell-based or functional assay.
In assay [26] the target is HIV-1 envelope glycoprotein (Env) of isolate 92RW020 (HIV-1). Description: cell-based or functional assay.
Assay [27] deals with HIV-1 MGRM-C-027 Env (HIV-1 isolate MGRM-C-027 (clade C)). The experiment in a line: cell-based or functional assay.
For assay [28], the target named is Endo H treated JR-FL gP120 (HIV-1 JR-FL). The experiment in a line: ELISA, antigen-coated wells, mAb titrated; EC50 by nonlinear regression. On the technique in general: ELISA stands for enzyme-linked immunosorbent assay.
Assay [29] concerns the target HIV-1 JR-CSF Env R350A (HIV-1 isolate JR-CSF) (UniProt P20871). The experiment in a line: cell-based or functional assay.
The target of assay [30] is HIV-1 JRFL envelope glycoprotein (Env) (HIV-1). Description: cell-based or functional assay.
For assay [31], the target named is HIV-1 CMU02 envelope glycoprotein (Env) (HIV-1). Description: cell-based or functional assay.
Assay [32] deals with HIV-1 92UG024 envelope glycoprotein (Env) (HIV-1). The experiment in a line: cell-based or functional assay.
In the next assay the target is aMLV envelope protein. The experiment in a line: cell-based or functional assay.
Assay [33] deals with HIV-1 JR-CSF Env N241A (HIV-1 (isolate JR-CSF)) (UniProt P20871). The experiment in a line: cell-based or functional assay.
Assay [34] deals with HIV-1 92BR020 envelope glycoprotein (Env) on pseudovirus (HIV-1). Description: cell-based or functional assay.
The target of assay [35] is HIV-1 93UG077 envelope glycoprotein (Env) on virus (HIV-1, clade A, isolate 93UG077). Description: cell-based or functional assay.
The target of assay [36] is HIV-1 93IN905 envelope glycoprotein (Env) on virus (HIV-1, clade C, isolate 93IN905). Description: cell-based or functional assay.

Sequence of 5329_C19 (PGT-136) (antibody) (VH): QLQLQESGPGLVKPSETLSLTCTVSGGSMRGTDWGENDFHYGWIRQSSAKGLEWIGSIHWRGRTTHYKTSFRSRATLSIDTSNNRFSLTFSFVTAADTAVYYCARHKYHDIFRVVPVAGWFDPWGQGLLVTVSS
Sequence of 5329_C19 (PGT-136) (antibody) (VL): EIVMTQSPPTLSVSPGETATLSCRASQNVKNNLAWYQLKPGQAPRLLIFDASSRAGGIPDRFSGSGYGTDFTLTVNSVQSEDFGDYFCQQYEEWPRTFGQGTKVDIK
Sequence of 1443_C16 (PG16) (TCN-116) (antibody) (VH): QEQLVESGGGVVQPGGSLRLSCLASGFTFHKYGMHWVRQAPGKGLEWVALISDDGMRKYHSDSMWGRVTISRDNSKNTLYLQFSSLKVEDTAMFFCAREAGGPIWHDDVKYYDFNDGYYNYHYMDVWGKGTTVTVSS
Sequence of 1443_C16 (PG16) (TCN-116) (antibody) (VL): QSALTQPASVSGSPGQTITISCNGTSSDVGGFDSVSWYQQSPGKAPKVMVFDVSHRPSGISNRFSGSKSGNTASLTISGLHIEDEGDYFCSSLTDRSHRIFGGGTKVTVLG

For b12 (antibody), the IC90 (neutralization of pseudovirus) in [1] was more than 50 µg/mL.

For 1443_C16 (PG16) (TCN-116) (antibody), the IC50, Neutralizing Antibody Assay, Virus/Ab Incubation 1 hour in assay [2], in [3] and in [4] was more than 50 µg/mL in each case. Moreover, the IC50, Neutralizing Antibody Assay, Virus/Ab Incubation 18 hour in assay [2], in assay [3] and in assay [4] was more than 50 µg/mL throughout. The substance also yielded an IC90 (neutralization of pseudovirus) in assay [1] of more than 50 µg/mL.

Regarding PGV04 (antibody), the IC50 (µg/mL), pseudovirus neutralization in assay [5] is 0.461 µg/mL; in assay [6] it was 22.4 µg/mL; in assay [10], 2.98 µg/mL; in [13], more than 50 µg/mL; in assay [15] it was 0.097 µg/mL; in assay [17] it was 1.76 µg/mL. Moreover, the IC50 (µg/mL), pseudovirus neutralization in assay [20] is 0.086 µg/mL; in assay [22] it was 0.35 µg/mL; in assay [24], more than 50 µg/mL. Further, the IC50 (as a rule, the concentration needed to halve the response being measured) in assay [7] came to 0.31 µg/mL; in assay [9], 0.14 µg/mL; in [11], 7.21 µg/mL; in assay [16] it was 0.54 µg/mL; in [19], 0.014 µg/mL; in assay [21], 0.055 µg/mL. In addition, the IC50, single-round pseudovirus neutralization was 0.497 µg/mL in assay [8], 24.2 µg/mL in assay [14] and 2.26 µg/mL in assay [18]. In addition, the results for the IC50 (µg/mL), single-round pseudovirus neutralization in assay [12] and in [23] were more than 50 µg/mL and 0.149 µg/mL, respectively.

With 4858_P08 (PGT-123) (antibody), in assay [25], the IC50, pseudovirus neutralization was determined as 0.222 µg/mL; the IC80 (pseudovirus neutralization) turned out to be 0.879 µg/mL; the IC90 (pseudovirus neutralization) came to 1.87 µg/mL; the IC95 (pseudovirus neutralization) turned out to be 3.5 µg/mL.

In [26], 5141_B17 (PGT-126) (antibody) returned a Neutralization IC80 of 0.0168 µg/mL, a Neutralization IC90 of 0.0359 µg/mL, a Neutralization IC95 of 0.0728 µg/mL and a neutralization IC50 of 0.0046 µg/mL.

In assay [27], 4838_L06 (PGT-121) (antibody) came in with a Neutralization IC80 of 0.0829 µg/mL, a Neutralization IC90 of 0.374 µg/mL and a Neutralization IC95 of 3.14 µg/mL. In addition, the EC50 – broadly, the concentration that produces a half-maximal response – in [28] was more than 10 µg/mL.

On to 1495_C14 (PGC14) (antibody), for which the results for the IC50, Neutralizing Antibody Assay, Virus/Ab Incubation 1 hour in [2], in assay [3] and in [4] were 1.17 µg/mL, more than 50 µg/mL and 0.0069 µg/mL, respectively. Also, the results for the IC50, Neutralizing Antibody Assay, Virus/Ab Incubation 18 hour in assay [2], in assay [3] and in assay [4] were 0.244 µg/mL, more than 50 µg/mL and less than 0.0025 µg/mL, respectively.

With 5136_H01 (PGT-131) (antibody), in assay [29], the Fold IC50 increase relative to wild-type was 1.3 fold.

For 5329_C19 (PGT-136) (antibody), in [30], the Neutralization IC80 is more than 10 µg/mL, the Neutralization IC90 is more than 10 µg/mL, the Neutralization IC95 was more than 10 µg/mL and the neutralization IC50 was more than 10 µg/mL. In assay [31], the Neutralization IC80 was more than 10 µg/mL, the Neutralization IC90 was more than 10 µg/mL, the Neutralization IC95 was more than 10 µg/mL and the neutralization IC50 was more than 10 µg/mL. In assay [32], the Neutralization IC80 worked out at 0.619 µg/mL, the Neutralization IC90 came out at 1.96 µg/mL, the Neutralization IC95 amounted to 5.97 µg/mL and the neutralization IC50 stood at 0.0915 µg/mL. In the assay with aMLV envelope protein, this substance gave a Neutralization IC80 of more than 10 µg/mL, a Neutralization IC90 of more than 10 µg/mL, a Neutralization IC95 of more than 10 µg/mL and a neutralization IC50 of more than 10 µg/mL.

In assay [29], 5147_N06 (PGT-130) (antibody) showed a Fold IC50 increase relative to wild-type of 0.5 fold.

As to 5343_B08 (PGT-135) (antibody), in assay [33], the Fold IC50 increase relative to wild-type is 0.1 fold. In assay [34], the Neutralization IC80 came out at 0.253 µg/mL, the Neutralization IC90 came out at 0.43 µg/mL, the Neutralization IC95 was 0.72 µg/mL and the neutralization IC50 was 0.104 µg/mL.

In assay [35], 4877_D15 (PGT-122) (antibody) showed a Neutralization IC80 of 0.931 µg/mL, a Neutralization IC90 of 2.1 µg/mL, a Neutralization IC95 of 3.88 µg/mL and a neutralization IC50 of 0.191 µg/mL. In assay [36], this substance had a Neutralization IC80 of 0.0505 µg/mL, a Neutralization IC90 of 0.108 µg/mL, a Neutralization IC95 of 0.217 µg/mL and a neutralization IC50 of 0.0138 µg/mL.

On to 1496_C09 (PG9) (TCN-109) (antibody), for which the IC50 (µg/mL), pseudovirus neutralization stood at 40.6 µg/mL in assay [5]; 1.86 µg/mL in assay [6]; 37.9 µg/mL in [10]; 7.25 µg/mL in assay [13]; 1.67 µg/mL in assay [15]; 23.7 µg/mL in assay [17]. Further, the IC50 (µg/mL), pseudovirus neutralization in assay [20] was 0.122 µg/mL; in [22], 0.038 µg/mL; in assay [24], 1.8 µg/mL. In addition, the IC50 in assay [7] turned out to be 0.258 µg/mL; in assay [9], 0.164 µg/mL; in assay [11] it was 1.06 µg/mL; in assay [16] it was 0.69 µg/mL; in [19], 0.006 µg/mL; in assay [21] it was 0.141 µg/mL. In addition, the IC50 (µg/mL), single-round pseudovirus neutralization in [12] was 0.148 µg/mL; in assay [23], 0.067 µg/mL. Further, the IC50, single-round pseudovirus neutralization is 0.181 µg/mL in assay [14] and 19.3 µg/mL in assay [18].
